Assay results as given in publication PMC2787765.

Molecular target: αB-crystallin triply substituted analog (serine residues 19, 45 and 59 mutated to aspartic acids) (UniProt P02511)
Test: back-scattering interferometry

| Substance | KD1 (high affinity mode) | KD2 (low affinity mode) | kf1 (forward rate, high affinity mode) | kf2 (forward rate, low affinity mode) | kr1 (reverse rate, high affinity mode) | reduction in magnitude of the steady-state BSI signal relative to T4L-L99A-A130S | reverse rate, low affinity mode (row printed as kr1) |
| --- | --- | --- | --- | --- | --- | --- | --- |
| T4 lysozyme D70N (from UniProt P00720 1-164) (enzyme) | 0.595 µM | 29.1 µM | 25500 M⁻¹ s⁻¹ | 2340 M⁻¹ s⁻¹ | 0.0152 s⁻¹ | 40% |  |
| T4 lysozyme L99A-A130S double mutant (from UniProt P00720 1-164) (enzyme) | 0.132 µM | 33 µM | 58500 M⁻¹ s⁻¹ | 2970 M⁻¹ s⁻¹ | 5.03e-06 s⁻¹ |  | 0.115 s⁻¹ |
